Assay results taken from patent US20110318808.

What was measured:
[1] = target: T1, synthetic peptide SEVVLFQASS (P3/6K1 junction recognition sequence EVVLFQA)
T1 chain: SEVVLFQASS

[2] = target: T2, fusion substrate protein with the TVMV NIa protease recognition sequence (ETVRFQGS)
T2 chain: ETVRFQGS

[3] = target: T3, fusion substrate protein with the PVA NIa protease consensus sequence with a P2' proline (ENVTFQGP)
T3 chain: ENVTFQGP

[4] = target: T4, fluorophore/quencher substrate peptide DABCYL-YGENVTFQGSK-EDANS
T4 chain: YGENVTFQGSK

[5] = target: T5, fusion substrate protein with the ENVTFQG consensus recognition sequence
T5 chain: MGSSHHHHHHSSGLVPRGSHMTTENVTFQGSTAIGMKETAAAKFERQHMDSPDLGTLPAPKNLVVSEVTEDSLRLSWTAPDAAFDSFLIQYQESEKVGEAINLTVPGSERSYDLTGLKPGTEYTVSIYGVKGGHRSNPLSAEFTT

[6] = target: T6, synthetic peptide SEAVYTQGSS (NIa/NIb junction recognition sequence EAVYTQG)
T6 chain: SEAVYTQGSS

[7] = target: T7, synthetic peptide SEMVTNQSSS (recognition sequence EMVTNQS)
T7 chain: SEMVTNQSSS

[8] = target: T8, synthetic peptide SENVTFQGSS (consensus recognition sequence ENVTFQG)
T8 chain: SENVTFQGSS

[9] = target: T9, synthetic peptide SENVTKQLSS (recognition sequence ENVTKQL)
T9 chain: SENVTKQLSS

[10] = target: T10, fusion substrate protein with the TEV NIa protease recognition sequence (ENLYGQGS)
T10 chain: ENLYGQGS

B1: potato virus A (PVA) NIa protease, wild type (protein)
chain: STSMFRGVRDYNPISSVICQLENESEGRTTQLFGLGFGPFIITNQHLFVRNNGSLTVRSQMGVFKVNSTVTLQMRPVEGRDVLIIKMPKDFPPFPQRLKFRQPTHSEKVCLILTNFQQKSSSSMVSETSHIIPKENTYFWKHWISTKEGHCGSPIVSTTDGAILGIHSLSNMTNTSNYFACFPKGFTETYLATESAHEWVKGWKFNASNVCWGSFHLQDSKPTKEFKTVKLV
[1]
  Cleaved by NIa (synthetic peptide, RP-HPLC and LC-MS): Yes
[2]
  Cleaved by NIa (fusion substrate protein): Yes
  rate of cleavage of fusion substrate: able to cleave the fusion substrate with the TVMV NIa protease recognition sequence, although at a much lower rate than the PVA NIa protease consensus sequence
[3]
  Cleaved by NIa (fusion substrate protein): No
[4]
  Km (uM), DTT +: 178 µM
  Relative Kcat/Km, DTT +: 100
  Vmax (RFU/min), DTT +: 78500 RFU/min
[5]
  proteolytic cleavage of the substrate monitored by SDS-PAGE: cleaved the substrate to completion
[6]
  Cleaved by NIa (synthetic peptide, RP-HPLC and LC-MS): Yes
[7]
  Cleaved by NIa (synthetic peptide, RP-HPLC and LC-MS): No
[8]
  Cleaved by NIa (synthetic peptide, RP-HPLC and LC-MS): Yes
[9]
  Cleaved by NIa (synthetic peptide, RP-HPLC and LC-MS): No
[10]
  Cleaved by NIa (fusion substrate protein): No
